Test results taken from the supplement of paper PMC12042874.
± gives the uncertainty stated by the source.

Test: amyloid nucleation score (Sup35N fusion, yeast selection) (log enrichment); library NNK1; higher = more nucleation; inactive = no reads after selection
How it was run: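 Yeast lacking psi expressed peptides of 20 random codons fused to Sup35N, received 100 μM copper sulfate for 24 hours, and were then grown for 7 days at 30°C on medium lacking adenine and uracil. Illumina sequencing of input and output plasmid inserts provided the reads. Nucleation scores are DiMSum log enrichments of output over input, centred on the mode of non-aggregating sequences. Any sequence with under 100 input reads was excluded.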

| Substance | amyloid nucleation score |
| --- | --- |
| AKYPMQRLLRFLFLVVR | 0.374 ± 0.48 |
| ALHVGLNSFPGMSRYV | 0.212 ± 0.89 |
| ALSDFGDKLSPPEDLRLEHW | 1.07 ± 0.62 |
| ALSPRVSSLGNFT | -0.691 ± 0.53 |
| ALVTVIHAPVFYLWNAFYLC | 7.396 ± 0.048 |
| AMLLLTCGL | 0.481 ± 0.74 |
| AMPYCGK | 0.575 ± 0.36 |
| AMWYTRRMQVENVKTVLSLM | -0.027 ± 0.34 |
| AMYFTWFVHFGAYRVRSIEK | 1.48 ± 0.48 |
| ANDFYVMYAEWKDCRNRVLF | 0.655 ± 0.66 |
| ANFAIFWSFYRGWCSFKIQS | 0.871 ± 0.5 |
| ANFFICFLHLVCTKIQSSLL | 1.77 ± 0.52 |
| ANQRSAGYPSGYKCTYYNRS | 0.838 ± 0.41 |
| APLYLHMWSCYSLMLSPSMG | -1.5 ± 2.4 |
| APRCKSIWS | -0.706 ± 0.59 |
| APSSKF | 0.062 ± 1.1 |
| AQYELLMQRNWYVGKDLVRG | -0.192 ± 0.42 |
| ARFVDYPCALLWARTSR | -0.375 ± 0.56 |
| ARGHGFQPVGPLGSVILMAR | -0.302 ± 0.68 |
| ARHRDALFRCEDMFGKVQYS | -0.296 ± 0.56 |
| ARRRF | -0.345 ± 1.7 |
| ARTGCHKVYLAAACSYGRFS | 0.188 ± 0.34 |
| ARTRVLMKQVQGFKSFTILH | 0.192 ± 0.52 |
| ARVNVWAVGWSENNSNLKI | 0.916 ± 0.24 |
| ARYGVSGHAYDTNPRRYFGQ | -0.903 ± 2.4 |

| Substance | amyloid nucleation score |
| --- | --- |
| ASEVCKY | 0.375 ± 0.79 |
| ASKFYHFRTQEYTS | 0.212 ± 0.28 |
| ASKKGPWFYSAVSYGLA | -0.128 ± 0.34 |
| ASLTDVYIDELRLSNEGTWN | 1.94 ± 0.65 |
| ASLVDVGSP | 0.215 ± 0.32 |
| ASRRSSHHSGRMHRAQLSGF | -1.5 ± 1.8 |
| ASSVSMFFYIWFLDAHVGYL | 0.364 ± 0.33 |
| ASVAHLCGQLTVDTGFRITG | 0.138 ± 0.33 |
| ASYGIIVSSLFFNGRGCHWS | 3.81 ± 0.096 |
| ATCPLYEVLSCYARVKFANT | -0.357 ± 0.33 |
| ATFSFGRT | inactive |
| ATGTSWYVPGRVGLCGYWLI | -0.153 ± 0.23 |
| ATHKNWIKRDTVHSLDGC | 0.041 ± 0.26 |
| ATLLFRFV | 0.831 ± 0.64 |
| ATRSMEAIIMRELWYIDPVY | 0.831 ± 0.87 |
| AVCSMKKSVMYELNVGFTYR | inactive |
| AVFHRREVRELAHRQPLLPI | 1.03 ± 0.66 |
| AVFIGCVNAGS | 0.621 ± 0.39 |
| AVFLY | -0.153 ± 0.33 |
| AVLIRSGCRIRNRRHG | 0.782 ± 0.75 |
| AVLKGYRWACMVFLSGFGRC | 0.243 ± 0.41 |
| AVLLCRSESCCKYSAIANSG | -1.22 ± 0.69 |
| AVMMHDTVGVHW | -0.609 ± 0.6 |
| AVSIWSPRIGVCETFQLDVV | -0.573 ± 0.57 |
| AVSSYYVERRYLNLQGANRY | 3.22 ± 0.15 |

| Substance | amyloid nucleation score |
| --- | --- |
| AWMGLKNVN | 1.59 ± 0.69 |
| AWYMPIWFLAYFL | 1.24 ± 0.14 |
| AYAGLRCVGSDVIAGKTVAN | 0.684 ± 1.2 |
| AYCLRN | 0.211 ± 0.68 |
| AYFMVHLLIF | 1.34 ± 0.13 |
| AYNFRSRRWMLFGYNWVSAP | 1.59 ± 0.51 |
| AYNLLYN | 1.59 ± 0.69 |
| AYVDAL | 1.53 ± 0.48 |
| AYVRGCLFILPFRPTQV | 1.42 ± 0.14 |
| CAFEAGLWTSDFLNEPVYHY | -0.126 ± 0.3 |
| CCDIEITLSHGVIGICSRKT | 0.844 ± 0.26 |
| CCDVHGCVGNMLSFTGILLF | 3.54 ± 0.076 |
| CCGGECLRVYRIMLGTVECT | 0.329 ± 0.28 |
| CCHRGCGAFVGWMHQFGWYI | -0.186 ± 0.42 |
| CCIFIDFTVIALGRTLVVRH | -1.17 ± 1.2 |
| CCPDSQIIRYNIYAVVYLRM | 1.92 ± 0.57 |
| CCVNVPIFRRKFGTCSCKAW | 0.065 ± 0.93 |
| CDEGWEESNSTD | -0.522 ± 1.6 |
| CDERNNAFLGVFGSS | -0.288 ± 0.47 |
| CDGLLYELRSVEWGKGKLNG | 0.438 ± 0.38 |
| CDGNHSRSLRLIDLGPGF | -0.558 ± 1.1 |
| CDLFSRACGSAMDTYNKSHI | -1.01 ± 0.9 |
| CDNDSMWGYCLTTRMGRFTA | -0.379 ± 0.59 |
| CDNRRNFSSWVVDISKYITI | -0.946 ± 0.57 |
| CDRLIKVSYRFIGAADRRWM | 1.35 ± 0.76 |

| Substance | amyloid nucleation score |
| --- | --- |
| CDSVV | -0.221 ± 0.73 |
| CDWGN | 1.14 ± 0.93 |
| CEVSIVSLARYVGREDLFDR | 0.213 ± 0.65 |
| CFCFFIVSPMMF | 3.89 ± 0.056 |
| CFCFKPSVKE | -1.71 ± 2.4 |
| CFDNSFTFPPDG | 0.066 ± 0.3 |
| CFFPIRDQQCTRSYHFSDHM | 0.727 ± 0.63 |
| CFIIIQPCANGWWYRCRSCV | -0.236 ± 0.38 |
| CFKFARGGVLI | 1.32 ± 0.66 |
| CFLYNSFYILDISELLQGST | 4.81 ± 0.049 |
| CFMETYSWKVRYTLFHKLST | 0.552 ± 0.79 |
| CFNMFT | -0.607 ± 0.76 |
| CFPDICWHSVK | 0.125 ± 0.79 |
| CFPMIQMEHSIKS | -0.449 ± 1.1 |
| CFPRSRRRQRSFNLCVRESR | 1.13 ± 0.57 |
| CFPSSVFVGCIFF | 7.532 ± 0.044 |
| CFQPWKNLKAY | -0.67 ± 0.68 |
| CFRFDYVGTYKHMPFR | 4.02 ± 0.16 |
| CFRHRYRQLGIMWWGLRLQL | -1.44 ± 2.4 |
| CFRISARFFRVQFHGVVCIW | 1.51 ± 0.25 |
| CFSISVTAYHSKSAT | 4.14 ± 0.099 |
| CFSSNCMEFLSNVLYKNINP | 0.626 ± 0.78 |
| CFVVCDMAF | inactive |
| CFWRNFDRGEAS | 0.94 ± 0.97 |
| CGAYRMWQYKASRGTHWPYT | -0.182 ± 0.6 |

| Substance | amyloid nucleation score |
| --- | --- |
| CGFEVFVRIV | 0.431 ± 0.7 |
| CGKTMGINAGMCSTNWGGPT | 0.263 ± 0.33 |
| CGPELNESQG | -0.485 ± 0.67 |
| CGRTYRGLS | 0.959 ± 0.72 |
| CGYMLVYDAHMHRSLLCAC | -0.285 ± 0.26 |
| CHLVSSTSAFA | 1.01 ± 0.56 |
| CHMKYFREVVATV | 0.186 ± 1.1 |
| CHSINLGLNPFKYVNLPNGH | 2.38 ± 0.15 |
| CHTTKNYVYCVCMQFVTHQ | 6.725 ± 0.045 |
| CIDYYLCLNMYRTGWYLRLC | inactive |
| CIISGMLWLAMKRTMGIELW | 2.88 ± 0.18 |
| CIRVWCLILSRSWGFTPANC | 1.18 ± 0.9 |
| CKDCYLITGVVINYPSRPLW | 5.985 ± 0.049 |
| CKKSCGSVRSNASLTKDWSN | -0.097 ± 0.28 |
| CKNNGGKDMSVMI | 1.14 ± 0.49 |
| CKRWRSILVKSSRSIMGTDV | -0.171 ± 1.1 |
| CKSRR | 0.034 ± 0.69 |
| CLEFLG | -0.526 ± 0.49 |
| CLETACRILGFCN | -0.488 ± 0.21 |
| CLFFNYRVIEFNTPGVNMFW | 0.739 ± 0.33 |
| CLGQDKLWNFVFTFLYLLQF | -0.172 ± 0.48 |
| CLHFFTQTTVWCKHVSSQKV | 0.21 ± 0.48 |
| CLILG | -1.31 ± 0.52 |
| CLLLARVVALVGPPSRTSGV | -0.121 ± 0.4 |
| CLLRTRFWR | 0.364 ± 0.56 |

| Substance | amyloid nucleation score |
| --- | --- |
| CLPNSYGAV | 0.435 ± 0.53 |
| CLYVAESSTTMNLWDHSVLP | -0.575 ± 0.41 |
| CMHEKIYIITCRSCGLREIR | 0.164 ± 0.39 |
| CMVSIQVVFKH | 4.44 ± 0.1 |
| CNDISISFYMRTGACYWRVW | -0.499 ± 0.46 |
| CNMSQC | inactive |
| CNPEGYRAHVLCFLNFA | 3.63 ± 0.092 |
| CNRSLWAGPRLHPWTRMYVR | 0.85 ± 0.62 |
| CNYCIWPARFVVIHDAMCVS | -0.98 ± 1.1 |
| CPASVMAKRYCQLKMGWWGP | 0.202 ± 0.37 |
| CPLAIVDTVHCRNSSSFSQ | -0.488 ± 0.45 |
| CPPSYLMT | -0.464 ± 0.45 |
| CPRIYGVRLKSSRLPAGVYV | 1 ± 1 |
| CPVMA | -0.094 ± 0.27 |
| CQELYLKFVVENFSTFLRNH | -2.68 ± 2.7 |
| CQVPGSRRHRRSIRERQNWN | 1.32 ± 0.62 |
| CRAGLVMSGWCRWFAQWMDS | -0.551 ± 0.59 |
| CRCMLSLLRIRLGVSSARLG | 0.143 ± 0.49 |
| CRLDGT | -0.36 ± 0.72 |
| CRLESGHYLCSHGRVSGLR | 0.796 ± 0.38 |
| CRLISCDRFRSTRSKG | 0.016 ± 0.52 |
| CRLKH | 0.123 ± 0.3 |
| CRRRPSSDELSVLWDAEGRY | 0.009 ± 0.66 |
| CSAYGKNTMGSESPVMSMAS | 0.368 ± 0.72 |
| CSCGLSYGLYFE | 0.786 ± 0.92 |

| Substance | amyloid nucleation score |
| --- | --- |
| CSGNRMDPLTVRLFVGLGIL | 0.347 ± 0.43 |
| CSHRM | 0.707 ± 0.51 |
| CSILF | 0.011 ± 0.75 |
| CSRNDTVHATINMWDNSATA | -0.07 ± 0.41 |
| CSRTMTWYP | -1.14 ± 1.3 |
| CSSDFYYLAELNLPFN | 0.917 ± 0.43 |
| CSSRVRMTRQLVKLVNICMR | -0.122 ± 0.97 |
| CSVRAVGILRWAFFGEHPLN | -0.422 ± 0.41 |
| CSYLSLRRKCVDTQFLYDMM | -0.199 ± 0.47 |
| CTEKMIFTDLHRLRVVYKYT | -0.59 ± 1.6 |
| CTLVDHYWGCEGRSCARCSS | 0.233 ± 0.55 |
| CTREVLWGCHCNSSASNLFS | -0.202 ± 0.61 |
| CTRVTSRAM | -0.757 ± 0.9 |
| CTVRFIYRKLN | -0.325 ± 0.33 |
| CVDRNG | -0.362 ± 0.39 |
| CVGGWWKTRHMSIWNWIWWL | 0.197 ± 0.9 |
| CVIQVVLYLV | 3.83 ± 0.059 |
| CVMFLGFVYVFSSLYPT | -0.981 ± 0.63 |
| CVNIRNQKQLSFAGLVDLSV | 0.358 ± 0.59 |
| CVTAVIRDGWGWNYCCRDHR | inactive |
| CVTDIRAWFKVGLCNSDVLQ | 3.89 ± 0.096 |
| CWDLTTVCHNFNRYHSWVSR | 0.431 ± 1.1 |
| CWDSNALADGCAWYKVLMDI | 0.229 ± 0.35 |
| CWMHFPYQVESDGQTNRAFD | 0.041 ± 0.34 |
| CWRLSYGLGVTFNKMLWPWK | 0.43 ± 0.56 |
